# Patent US10054602B2, “Conjugate of estradiol and applications thereof” (CHRIST UNIVERSITY, priority 2016, dated 2018)
# Entries after “also recorded” stand apart in the source; their conditions may differ. Where two headings read alike, the source gives them in different places.
# Assays:
# [1] = system: MCF-7 cells; experiment: inhibition of nuclear entry of estrogen conjugated dye in MCF-7 cells; assay type: cell-based, Human
# Experimental: The estrogenic activity is examined using human mammary carcinoma MCF-7 cells. The cells are cultured with various concentrations of Diethylstilbestrol (DES) and estrogen conjugated dye for more than 5 days and then the cells were counted.
# A very clear distinction on non-specific binding is observed and the binding is only seen in the cytoplasm.
# [2] = optical properties of dye (absorption, emission, quantum yield); assay type: physicochemical; conditions: for absorption maxima (wavelength): solvent not stated; for Quantum yield φ: ICG as standard
# Experimental: The increased fluorescence quantum yield of the hydrophilic derivatives reduces the risk of the forming fluorescence-quenched aggregation. […] Thus the conjugate can be used for tagging estradiol because of its ability to form monoderivatized activated precursors as it has a carboxylic group which can be tailored to attach to functional groups of biomoloecules like estradiol.
# The excitation and emission peaks for the conjugate are recorded in the NIR region as 757 nm and 788 nm respectively. The potential of the compound in the application as contrast agents for fluorescence imaging modalities, where the fluorescence emission of the dye is expected to be detectable in high sensitivity above low tissue background is analysed on the breast cancer cell lines MCF-7/MDA-MB-231.
# [3] = tissue kinetics in tumor tissue after injecting; assay type: in vivo; conditions: for half-life: in tumor tissue, read-out: tissue-efflux half-life
# [4] = system: MCF-7 [ER+] cells; experiment: NIRF staining / confocal laser microscopy of MCF-7 cells; assay type: cell-based, Human; conditions: for cellular localisation / binding of fluorescence: MCF-7 (ER+), confocal microscopy, 1 μM
# Experimental: (§1) Human breast cancer cell lines MCF-7 [ER+] and MDA-MB-231 [ER-] are obtained from National Centre for Cell science (NCCS (Pune)). The cells are cultured, revived and the experiments are carried out at Advanced Centre for Treatment, Research and Education in Cancer (ACTREC) of Tata Memorial Centre (Mumbai).
# MCF-7 and MDA-MB-231 cells are cultured in DMEM/F12 medium without phenol red (ACTREC, Mumbai) supplemented with 10% fetal bovine serum. Cells in suspension (50 μl) are added to each well of a 96-well culture plate for a final concentration of 1×10^3 Cells/well and incubated for 24 h at 37° C. in carbon dioxide chamber.
# The NIRFDC with initial concentration of 24.5 mg/2 ml of DMSO solution is added to each well, and the cultures further incubated for 2 h. The cells are treated at different concentration levels of 1:10, 1:50, 1:100, 1:500 and 1:1000 of DMSO. The cells were then re-suspended in 100 μl of 0.04N HCl/isopropanol solution.
# Cell smears are prepared by rolling the swab across the top half of the well of a microscope slide. The opposite side of the swab is rolled over the bottom half of the well. There after the slide is allowed to air dry completely. Then the slide is fixed in chilled (2° to 8° C.) acetone for 10 minutes, which is further removed and allowed to air dry completely. Slides are stored at ≤−20° C. with desiccant. On completion, the cells are re-suspend to at least 400 μL in phosphate buffered saline and 200 μL is applied to each slide by cento-centrifugation at 800 rpm for 4 minutes [Br. J Cancer. 58:77-80, (1988)]. This procedure is repeated for fixing both the cell lines.
# The smears are stained with the conjugate at different dilutions of 1:10, 1:50, 1:100, 1:500 and 1:1000 and incubated for an hour at about 25° C. Thereafter these cells are given 3 washes of phosphate buffered saline, mounted with DPX (Distrene Plasticyser Xylene) covered and imaged using the Olympus Confocal microscope.
# MCF-7 cells maintained at 37° C. in a 5% CO2 atmosphere in phenol red-free minimal essential medium (MEM) containing 10% charcoal stripped calf serum and penicillin, streptomycin, glutamine, are incubated for 4 days in 24 multiwells (NUNC). After 4 days of culture, the medium is removed and the cells are incubated for 1 hour at 37° C. with […] at concentrations ranging from 0.3 nM to 1 nM. Medium is removed and the cells are washed twice with phosphate buffer saline (PBS). 250 μl of absolute ethanol is added to each well (exposition during 20 min).
# The in-vitro studies are carried out using the inverted lens Olympus Fluo-View Confocal Microscope. The sample is excited at 754 nm and the emissions are observed using PMT having relatively higher quantum efficiency in the NIR-region.
# These cells retained several characteristics of differentiated mammary epithelium including ability to process estradiol via Nuclear and cytoplasmic estrogen receptors and the capability of forming domes. MBA-MB-231 breast cancer cell lines are used as the control. […] The nuclear staining is pivotal towards early detection of cancer as 80% of the breast cancer reported are ER+ and could be detected by this characteristic feature. […]
# In-vitro fluorescence signal of malignant cells bearing estrogen receptor positive with the control (cells without intracellular estrogen receptors) are studied. Fluorescence intensity generated by the NIRF Dye-Conjugate in particular to the nucleus and the entire cell is plotted as shown in the (FIG. 6 A, B). […]
# [5] = ICG as standard; cited from earlier work
# [6] = plasma protein binding; assay type: in vitro ADME
# [7] = system: cell lines; experiment: toxic effect on the cell lines; assay type: cell-based; conditions: glucosammonium ion in place of sodium ion
# [8] = partition coefficient studies; assay type: physicochemical
# [9] = system: MDA-MB-231 [ER-] cells; experiment: NIRF staining / confocal laser microscopy of MDA-MB-231 control cells; assay type: cell-based, Human; conditions: 1 μM
# Experimental: as §1
# MCF-7 and MDA-MB-231 cells are cultured in DMEM/F12 medium without phenol red (ACTREC, Mumbai) supplemented with 10% fetal bovine serum. Cells in suspension (50 μl) are added to each well of a 96-well culture plate for a final concentration of 1×10^3 Cells/well and incubated for 24 h at 37° C. in carbon dioxide chamber. […]
# These cells retained several characteristics of differentiated mammary epithelium including ability to process estradiol via Nuclear and cytoplasmic estrogen receptors and the capability of forming domes. […] The nuclear staining is pivotal towards early detection of cancer as 80% of the breast cancer reported are ER+ and could be detected by this characteristic feature. […]
# The cell lines are not controlled by the estrogen and lack the estrogen activity in the nucleus. After additional incubation under conditions permitting membrane traffic and thus endocytosis, fast and thorough internalization of ligand-receptor complexes into an intracellular compartment could be detected. […]
# [10] = target: T1, Estrogen receptor (ER) in human breast cancer tissues (Homo sapiens, UniProt P03372); experiment: ER staining of breast carcinoma tissue sections; conditions: Non-invasive Ductal, Lobular, Adenocarcinoma and Medullary Carcinoma
# T1 construct: from tissue; host or cells: human breast carcinoma tumor tissue, formalin-fixed paraffin sections
# Experimental: The avidin-biotin-peroxidase complex method is used for the paraffin sections fixed in cold buffered formalin and the results are compared with the ER content in the respective tumor tissue. The specific staining for ER is located exclusively in the nuclei of cancer cells in paraffin sections.
# The tumor pieces are fixed in buffered formalin (0.1 M sodium phosphate, pH 7.4/10% formalin) for 24 hr at […]. After being rinsed overnight at […]. in 0.1 M sodium phosphate (pH 7.4), they are dehydrated with graded ethanol and embedded in paraffin. Paraffin sections (4 μm) are cut, deparaffinized with xylene, and rinsed thoroughly with absolute ethanol. Then they are soaked in absolute methanol containing 0.3% H2O2 for 30 min at 25° C. to decrease the endogenous peroxidase activity. The sections were washed three times with 50 mM Tris-HCl, pH 7.6/137 mM NaCl (Tris/NaCl) and were incubated with serum (10% in Tris/NaCl) for 30 min at 25° C. so as to reduce the nonspecific staining. Excess serum is removed by blotting. I˜g/ml) or with normal rat IgG (10 A·g/ml) for 30 min at 37° C. After being washed with Tris/NaCl. […]
# T1 sequence (P03372 whole entry): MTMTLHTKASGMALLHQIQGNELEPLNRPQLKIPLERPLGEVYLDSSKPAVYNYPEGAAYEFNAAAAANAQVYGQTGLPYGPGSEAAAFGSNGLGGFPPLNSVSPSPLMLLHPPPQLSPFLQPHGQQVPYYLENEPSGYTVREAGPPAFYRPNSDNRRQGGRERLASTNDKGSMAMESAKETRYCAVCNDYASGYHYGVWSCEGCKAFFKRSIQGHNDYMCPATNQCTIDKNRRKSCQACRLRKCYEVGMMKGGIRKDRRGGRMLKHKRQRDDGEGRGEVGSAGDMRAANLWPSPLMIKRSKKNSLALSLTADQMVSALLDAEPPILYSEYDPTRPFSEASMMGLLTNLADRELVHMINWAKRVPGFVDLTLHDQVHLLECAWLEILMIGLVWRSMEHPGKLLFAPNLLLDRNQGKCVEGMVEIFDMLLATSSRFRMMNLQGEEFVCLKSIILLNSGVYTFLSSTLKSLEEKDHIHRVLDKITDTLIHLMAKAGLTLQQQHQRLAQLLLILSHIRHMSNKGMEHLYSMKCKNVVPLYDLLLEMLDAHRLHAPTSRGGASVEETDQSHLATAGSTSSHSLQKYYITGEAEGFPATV
smiles,measurement,setting,value
CC/C(=C(\c1ccccc1)c1ccc(OCCN(C)C)cc1)c1ccccc1 [Tamoxifen],blocking of entry of the estradiol conjugate into the nucleus,[1],inhibited the entry of the estradiol into the nucleus; also recorded: blocking operation of the estrogen conjugated dye entering the nucleus
CC/C(=C(/CC)c1ccc(O)cc1)c1ccc(O)cc1 [Diethylstilbestrol],blocking of entry of the estradiol conjugate into the nucleus,[1],inhibited the entry of the estradiol into the nucleus
same,blocking of entry of the estradiol conjugate into the nucleus,[1]; listed as DES,blocking operation of the estrogen conjugated dye from entering the nucleus
"CC1(C)C(/C=C/C=C/C=C/C=C2\N(CCCCS(=O)(=O)O)c3ccc4ccccc4c3C2(C)C)=[N+](CCCCS(=O)(=O)[O-])c2ccc3ccccc3c21 [ICG, Indocyanine Green, reference compound]",absorption maxima (wavelength),[2],780
same,half-life,[3]; other: injection (type not specified),< 0.167 h
same,cellular localisation / binding of fluorescence,[4],only stains the cells without entering the nucleus of the cell
same,quantum yield φ of the standard,[5],0.13
CC1(C)C(/C=C/C=C/C=C/C=C2\N(CCCCS(=O)(=O)O)c3ccc(C(=O)Oc4ccc5c(c4)CCC4C5CC[C@@]5(C)C4CC[C@@H]5O)cc3C2(C)C)=[N+](CCCCS(=O)(=O)[O-])c2ccc(C(=O)Oc3ccc4c(c3)CCC3C4CC[C@@]4(C)C3CC[C@@H]4O)cc21 (stereo partly drawn) [conjugate],fraction unbound,[6],> 0.5
same,toxic effect on the cell lines,[7],reduce the toxic effect on the cell lines
same,Stokes' shift of fluorescence maximum,[2],38 nm
same,Strokes' shift,[2]; DMSO,30
same,λmax absorption,[2]; DMSO,757 nm
same,λmax emission,[2]; DMSO,787 nm
same,Quantum yield φ,[2]; DMSO,0.114
same,emission peak,[2]; NIR region,788 nm
same,excitation peak,[2]; NIR region,757 nm
same,Strokes' shift,[2]; PBS,33
same,λmax absorption,[2]; PBS,755 nm
same,λmax emission,[2]; PBS,788 nm
same,Quantum yield φ,[2]; PBS,0.110
same,enhancement of fluorescence quantum yields with respect to ICG,[2]; physiological environment,7-15%
same,absorption maxima (wavelength),[2],757
same,initial tissue absorption coefficient compared to ICG,[3]; in vivo,two-fold higher
same,half-life,[3]; other: injection (kind of injection not stated),1.22 h
same,tumor-to-tissue concentration gradient,[3]; up to one hour after injecting,elevated tumor-to-tissue concentration gradient for up to one hour after injecting
same,partition coefficient,[8],less than 0.005
same,signal intensity of MCF-7 cells compared to MDA-MB-231,[4]; 24 h,~2.4 fold
same,cellular localisation / binding of fluorescence,[4],specific high affinity binding sites of estrogen molecule on to the nucleus and membrane
same,cellular localisation / binding of fluorescence,[4]; listed as NIRFD-conjugate,majority of the receptor-associated fluorescence co-localized at the Nucleus and a minority in the plasma membrane
same,cellular localisation / binding of fluorescence,[4]; listed as NIRFDC,very clear localization of conjugated dye in the nucleus; also recorded: significant amount of binding is seen in the nucleus
same,cellular localisation / binding of fluorescence,[9],only the plasma membrane staining
same,cellular localisation / binding of fluorescence,[9]; listed as NIRFDC,poor binding of conjugate into the nucleus
same,ER staining of carcinoma tissue,[10],ER staining which are confined to the nuclei
